The test addresses recombinant human netrin‐1 (R&D), on HIS1K biosensors (human) (UniProt O95631). Kind of test: BLI; netrin-1 on HIS1K biosensors; m-Laminin-I at 3.12-100 nM; 30°C, 1,000 rpm; PBS, 0.02% Tween-20, 0.1% BSA; 5 min association, 5 min dissociation. On the technique in general: BLI is a label-free optical method that tracks binding on a fibre tip over time.

For one substance, Kd results are on record in article PMC10086585.

In general, Kd refers to the free concentration of one partner at which half of the binding sites on the other are occupied at equilibrium, for simple one-to-one binding.

As for mouse laminin‐I (complex), the Kd was 29.5 nM.
